Test results from patent publication US20240358850A1.

Target: denatured collagen type-IV
Test: cell-based or functional assay

inhibition of B16F10 melanoma cell adhesion to denatured collagen type-IV coated wells (antibody 100 µg/ml) [%] | Binder
> 40 | Humanized anti-HU177 antibody (antibody, human IgG1, kappa, V domains shown) VH: QVTLKESGPALVKPTQTLTLTCTFSGFSLSTPGMGVWWIRQPPGKALEWLADIWWDDNKYTNPSLKSRLTISKDTSKNQVVLTMTNMDPVDTATYYCARRANYGNPYYAQDYWGQGTTVTVSS VL: DIVMTQTPLSLPVTPGEPASISCRSSQSIVSSWGNTYLEWYLQKPGQSPQLLIYKVSNRFSGVPDRFSGSGSGTDFTLKISRVEAEDVGVYYCFQGSHVPWTFGQGTKVEIKR
> 40 | MMAE-conjugated anti-HU177 antibody (Anti-HU177-MMAE) (antibody, V domains shown, MMAE conjugated with the Perkit Antibody MMAE Conjugation Kit; conjugation sites and chain not stated) VH: QVTLKESGPALVKPTQTLTLTCTFSGFSLSTPGMGVWWIRQPPGKALEWLADIWWDDNKYTNPSLKSRLTISKDTSKNQVVLTMTNMDPVDTATYYCARRANYGNPYYAQDYWGQGTTVTVSS VL: DIVMTQTPLSLPVTPGEPASISCRSSQSIVSSWGNTYLEWYLQKPGQSPQLLIYKVSNRFSGVPDRFSGSGSGTDFTLKISRVEAEDVGVYYCFQGSHVPWTFGQGTKVEIKR
